From publication PMC8948829, “The Escherichia coli Amino Acid Uptake Protein CycA: Regulation of Its Synthesis and Practical Application in l-Isoleucine Production”

Molecular target: Crp (CRP, cAMP receptor protein) (Escherichia coli (purified from strain …, UniProt P0ACJ8 1-210))
Assay: EMSA; 20 uM cAMP; 12 ng Crp, 50 ng probe; 10 mM Tris-HCl pH 7.5, 1 mM EDTA, 100 mM KCl, 1 mM DTT, BSA (printed 10 g/mL), 5% glycerol, 20 uM cAMP, room temperature 30 min; 6% native PAGE, 1x TAE, 4 C
Conditions: protein: recombinant; tags: none (native His residues used for Ni-NTA); chain copies: 2; label: 5'-TAMRA on strand 2 (primer P11); blunt

Chain of Crp (CRP, cAMP receptor protein) (Escherichia coli (P0ACJ8 whole entry): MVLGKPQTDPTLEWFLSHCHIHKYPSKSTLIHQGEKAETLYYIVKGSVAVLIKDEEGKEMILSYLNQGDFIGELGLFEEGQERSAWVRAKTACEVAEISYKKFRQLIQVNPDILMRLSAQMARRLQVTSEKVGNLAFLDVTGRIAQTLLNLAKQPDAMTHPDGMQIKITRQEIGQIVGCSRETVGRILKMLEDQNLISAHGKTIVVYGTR

B1: PcycA fragment 2 (73 bp) (dsDNA)
DNA 1: CAAAGACCCCGTAAGCGTGTATTTTTGTGAGCTGTTTCGCGTTATCACCGTGATATGACACTCACTTTAAACA
DNA 2: TGTTTAAAGTGAGTGTCATATCACGGTGATAACGCGAAACAGCTCACAAAAATACACGCTTACGGGGTCTTTG
binding result: binds
